± gives the uncertainty stated by the source.
Test: self-splicing fitness, log relative to wild type (ln ratio); higher = more splicing; Tetrahymena group I intron in knt gene, E. coli kanamycin selection, DiMSum; sequences stand for … in CUCUCU…GGAGGGAAAAGUUAUCAGGCAUGCACCUGGUAGCUAGUCUUUAAACCAAUAGAUUGCAUCGGUUUAAAAGGCAAGACCGUCAAAUUGCGGGAAAGGGGUCAACAGCCGUUCAGUACCAAGUCUCAGGGGAAACUUUGAGAUGGCCUUGCAAAGGGUAUGGUAAUAAGCUGACGGACAUGGUCCUAACCACGCAGCCAAGUCCUAAGUCAACAGAUCUUCUGUUGAUAUGGAUGCAGUUCACAGACUAAAUGUCGGUCGGGGAAGAUGUAUUCUUCUCAUAAGAUAUAGUCGGACCUCUCCUUAAUGGGAGCUAGCGGAUGAAGUGAUGCAACACUGGAGCCGCUGGGAACUAAUUUGUAUGCGAAAGUAUAUUGAUUAGUUUUGGAGUACUCGUGGUCG
In short: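 Pooled colonies went to amplicon sequencing on an Illumina HiSeq 2500 after six replicate transformations. The plates were LB agar with 100 μg/mL carbenicillin, 50 μM IPTG and 0.2% rhamnose, with or without 25 μg/mL kanamycin, incubated overnight at 37°C or 30°C. The E. coli BL21(DE3) library had all eight P1ex-region intron nucleotides randomised, the intron placed in the knt kanamycin-resistance gene on pET-22b(+). DiMSum fitness is the error-weighted combination of replicate fold changes, kanamycin against none, normalised to wild type.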

Row | Sequence | self-splicing fitness (ln) (30 °C) | self-splicing fitness (ln) (37 °C)
1 | CGGGAGCAAUAUUACGUGGA | -2.06 ± 0.15 | -3.14 ± 0.23
2 | UACCAGCAAUAUUACGCCAU | -3.27 ± 0.22 | -2.85 ± 0.16
3 | GUACAGCAAUAUUACGCGAA | -2.24 ± 0.13 | -2.22 ± 0.14
4 | UUAUAGCAAUAUUACGUACU | -1.49 ± 0.18 | -1 ± 0.23
5 | UACUAGCAAUAUUACGAAAA | -2.6 ± 0.35 | -2.26 ± 0.42
6 | UUUGAGCAAUAUUACGAUCG | -2.23 ± 0.23 | -1.81 ± 0.29
7 | AGGUAGCAAUAUUACGCCAC | -3.97 ± 0.058 | -2.98 ± 0.069
8 | GGACAGCAAUAUUACGCCAU | -1.98 ± 0.26 | -2.03 ± 0.46
9 | CAGCAGCAAUAUUACGAUAC | -3.52 ± 0.33 | -3.45 ± 0.4
10 | UAAAAGCAAUAUUACGUACA | -1.05 ± 0.1 | -0.00957 ± 0.14
11 | CCUCAGCAAUAUUACGUACA | -3.73 ± 0.29 | -2.78 ± 0.34
12 | GGUAAGCAAUAUUACGCUUG | -3.34 ± 0.38 | -1.7 ± 0.34
13 | AGCAAGCAAUAUUACGUCGA | -1.99 ± 0.11 | -0.323 ± 0.097
14 | GGGUAGCAAUAUUACGCUGU | -3.54 ± 0.38 | -2.32 ± 0.29
15 | ACGCAGCAAUAUUACGGUUU | -0.937 ± 0.054 | -0.076 ± 0.083
16 | CAAGAGCAAUAUUACGACCC | -2.19 ± 0.45 | –
17 | CCACAGCAAUAUUACGCUUA | -3.43 ± 0.16 | -2.98 ± 0.18
18 | GAGGAGCAAUAUUACGUUUA | -1.89 ± 0.26 | -1.84 ± 0.32
19 | GAAGAGCAAUAUUACGACUA | -2.15 ± 0.29 | -1.92 ± 0.24
20 | UAGAAGCAAUAUUACGAAGU | -3.7 ± 0.4 | -1.17 ± 0.22
21 | AAGCAGCAAUAUUACGAACC | -2.26 ± 0.14 | -0.526 ± 0.15
22 | ACUGAGCAAUAUUACGCGCU | -3.03 ± 0.23 | -2.1 ± 0.26
23 | CGCUAGCAAUAUUACGCAGC | – | -2.8 ± 0.33
24 | GCCCAGCAAUAUUACGGCUU | -1.29 ± 0.071 | -0.757 ± 0.093

Row | Sequence | self-splicing fitness (ln) (30 °C) | self-splicing fitness (ln) (37 °C)
25 | CAAGAGCAAUAUUACGCUCU | -3.49 ± 0.32 | -1.86 ± 0.27
26 | GCCUAGCAAUAUUACGAGUG | -2.5 ± 0.11 | -0.934 ± 0.099
27 | UCCCAGCAAUAUUACGUUUG | -3.67 ± 0.11 | -2.91 ± 0.15
28 | CGUCAGCAAUAUUACGUGAU | -2.04 ± 0.1 | -1.18 ± 0.13
29 | GGUAAGCAAUAUUACGCGAG | -2.95 ± 0.15 | -0.704 ± 0.09
30 | UCCAAGCAAUAUUACGAUAC | -3.99 ± 0.42 | -1.11 ± 0.3
31 | CAUAAGCAAUAUUACGCUAU | -2.93 ± 0.28 | -2.99 ± 0.4
32 | GGUCAGCAAUAUUACGAUGG | -1.34 ± 0.076 | -0.299 ± 0.1
33 | UCAAAGCAAUAUUACGUGUG | -1.51 ± 0.058 | -0.749 ± 0.066
34 | CACCAGCAAUAUUACGGGCC | -3.9 ± 0.19 | -1.73 ± 0.14
35 | AGCUAGCAAUAUUACGCCUG | -1.6 ± 0.13 | -1.55 ± 0.17
36 | AGUGAGCAAUAUUACGCACU | -2.97 ± 0.44 | -2.24 ± 0.38
37 | UAGCAGCAAUAUUACGAAUC | -3.68 ± 0.42 | -2.03 ± 0.27
38 | GCCCAGCAAUAUUACGGUGA | -0.302 ± 0.045 | 0.206 ± 0.056
39 | GUCUAGCAAUAUUACGGGCG | -1.66 ± 0.28 | -0.341 ± 0.17
40 | GAGUAGCAAUAUUACGCGCU | – | -0.5 ± 0.39
41 | GAUCAGCAAUAUUACGUUCU | -2.42 ± 0.1 | -1.46 ± 0.12
42 | GGUGAGCAAUAUUACGAUGG | – | -1.2 ± 0.39
43 | ACUAAGCAAUAUUACGCACU | -0.0279 ± 0.082 | -0.417 ± 0.08
44 | CGAUAGCAAUAUUACGGGUU | -3.84 ± 0.21 | -3.04 ± 0.24
45 | UGACAGCAAUAUUACGAGGA | -2.51 ± 0.16 | -3.06 ± 0.22
46 | GGGUAGCAAUAUUACGCGAU | -3.42 ± 0.26 | -1.93 ± 0.23
47 | CGUUAGCAAUAUUACGAGUA | -3.68 ± 0.37 | -2.67 ± 0.36
48 | UCCAAGCAAUAUUACGACGC | -2.45 ± 0.18 | -1.25 ± 0.14

Row | Sequence | self-splicing fitness (ln) (30 °C) | self-splicing fitness (ln) (37 °C)
49 | AUCAAGCAAUAUUACGGCUC | -0.551 ± 0.063 | -0.7 ± 0.076
50 | UUGAAGCAAUAUUACGAGUU | -3.34 ± 0.17 | -1.58 ± 0.17
51 | AUCCAGCAAUAUUACGGGGG | -3.15 ± 0.16 | -1.96 ± 0.15
52 | ACCGAGCAAUAUUACGUUGG | -4.16 ± 0.27 | -2.41 ± 0.22
53 | CUAGAGCAAUAUUACGUUCA | -3.21 ± 0.24 | -1.36 ± 0.29
54 | UCCCAGCAAUAUUACGGCUC | -2.83 ± 0.14 | -2.31 ± 0.24
55 | UGAAAGCAAUAUUACGCGCG | -0.237 ± 0.079 | -0.153 ± 0.1
56 | ACCCAGCAAUAUUACGUCGG | -2.15 ± 0.073 | -0.593 ± 0.088
57 | ACUCAGCAAUAUUACGGAGU | -2.78 ± 0.11 | -2.7 ± 0.18
58 | GCUUAGCAAUAUUACGCUAA | -2.91 ± 0.21 | -3.01 ± 0.26
59 | ACAGAGCAAUAUUACGCCGC | -3.09 ± 0.48 | -1.07 ± 0.36
60 | GGGAAGCAAUAUUACGAAAC | -0.695 ± 0.14 | -0.469 ± 0.17
61 | AUCCAGCAAUAUUACGAACC | -0.394 ± 0.1 | -0.346 ± 0.15
62 | CACCAGCAAUAUUACGAUGA | -1.9 ± 0.091 | -2 ± 0.099
63 | CGUCAGCAAUAUUACGCACG | -2.16 ± 0.11 | -1.22 ± 0.12
64 | GCUAAGCAAUAUUACGCUCC | -1.01 ± 0.13 | -1.07 ± 0.18
65 | GAAAAGCAAUAUUACGACGC | -0.132 ± 0.069 | 0.493 ± 0.093
66 | UAAUAGCAAUAUUACGCGCG | -0.452 ± 0.11 | -0.333 ± 0.14
67 | UUAUAGCAAUAUUACGCUAA | -2.61 ± 0.24 | -2.34 ± 0.19
68 | UGCAAGCAAUAUUACGGUAG | -0.738 ± 0.073 | -0.376 ± 0.081
69 | UUCAAGCAAUAUUACGGGAU | -3.11 ± 0.13 | -1.4 ± 0.14
70 | AUUAAGCAAUAUUACGCGAU | -3.33 ± 0.23 | -2.63 ± 0.34
71 | UGCCAGCAAUAUUACGUAAC | -2.39 ± 0.18 | -2.36 ± 0.2
72 | GAGGAGCAAUAUUACGCCGG | -3.44 ± 0.48 | -2.68 ± 0.36

Row | Sequence | self-splicing fitness (ln) (30 °C) | self-splicing fitness (ln) (37 °C)
73 | UACCAGCAAUAUUACGAACC | -3.08 ± 0.2 | -1.05 ± 0.23
74 | UAGAAGCAAUAUUACGACAC | -1.77 ± 0.43 | -2.07 ± 0.25
75 | GCCAAGCAAUAUUACGCUCG | -3.5 ± 0.2 | -1.84 ± 0.15
76 | AGGUAGCAAUAUUACGGGUA | -2.347 ± 0.022 | -1.31 ± 0.034
77 | UAUUAGCAAUAUUACGUCAU | -3.69 ± 0.31 | -2.81 ± 0.27
78 | GUCAAGCAAUAUUACGAGUU | -3.15 ± 0.15 | -0.638 ± 0.093
79 | GGCCAGCAAUAUUACGCGCC | -3.11 ± 0.24 | -2.05 ± 0.44
80 | UGGUAGCAAUAUUACGGAAG | -2.16 ± 0.15 | -1.27 ± 0.18
81 | AAAGAGCAAUAUUACGGUCC | -3.16 ± 0.44 | -0.864 ± 0.38
82 | UUCCAGCAAUAUUACGGAGC | -4.31 ± 0.31 | -2.99 ± 0.47
83 | AAAAAGCAAUAUUACGUGCG | -0.427 ± 0.052 | -0.846 ± 0.064
84 | UGGAAGCAAUAUUACGCCGA | -1.53 ± 0.26 | -0.201 ± 0.27
85 | GUUGAGCAAUAUUACGAAUU | -3.8 ± 0.34 | -1.24 ± 0.34
86 | CAUUAGCAAUAUUACGAUCU | -2.48 ± 0.2 | -3.22 ± 0.47
87 | AAGUAGCAAUAUUACGAUAC | -3.92 ± 0.28 | -1.71 ± 0.25
88 | CGAAAGCAAUAUUACGACUG | -0.103 ± 0.064 | -0.811 ± 0.078
89 | AGGGAGCAAUAUUACGGCUC | -2.18 ± 0.24 | –
90 | AAUUAGCAAUAUUACGUAGU | -2.9 ± 0.16 | -0.462 ± 0.1
91 | UUGCAGCAAUAUUACGAGGA | -2.08 ± 0.18 | -0.954 ± 0.14
92 | UUUCAGCAAUAUUACGAGAA | -1.92 ± 0.37 | -1.49 ± 0.24
93 | GUUGAGCAAUAUUACGUCUG | -2.34 ± 0.44 | -2.04 ± 0.4
94 | GAAUAGCAAUAUUACGCAAC | -2.63 ± 0.21 | -1.77 ± 0.3
95 | CGGGAGCAAUAUUACGCUGA | -1.34 ± 0.21 | -2.14 ± 0.31
96 | CUUCAGCAAUAUUACGGACG | -0.00287 ± 0.06 | -0.541 ± 0.073

From the supplement of paper PMC7877785
